Molecular target: BG505_mut123_N241 SOSIP (HIV-1 (subtype A, BG505)) (UniProt Q2N0S6)
Assay: negative-stain EM

B1: 13B Fab (Fab, V domains shown)
VH: LEESGGGLVQPEGSLTLTCKASGFDFSDYHVQWVRQSPGKGLEFIGGIAYTGNIYYASWAKGRFTISKTSSTTVTLQMTTLTAADTATYFCARAYGYASAPYAQYFNLWGPGTLVTVSS
VL: DIVMTQTPASVSEPVGGTVTINCQASQSRGNNYLSWYQQKPGQSPSLLIYRTSTLASGVPSRFKGSGSGTQFTLTISDLECADAATYYCLYGYYSSRNPDFAFGGGTEVVVK
Work on B1 yielded a percent of particles that were trimers with no Fab bound of 57% and a percent of particles with one Fab bound of 43%.
